T1: FcγRIIb (human, UniProt P31994 43-217)
T1 construct: extracellular domain; also called FcgRIIb; 2b
T1 sequence (looked up): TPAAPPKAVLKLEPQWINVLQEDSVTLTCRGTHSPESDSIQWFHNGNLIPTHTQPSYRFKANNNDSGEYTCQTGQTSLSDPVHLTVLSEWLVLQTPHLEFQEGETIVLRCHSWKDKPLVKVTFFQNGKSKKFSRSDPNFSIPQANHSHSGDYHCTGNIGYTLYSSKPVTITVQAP

T2: FcγRIIa R extracellular domain with C-terminal His tag (human, UniProt P12318 34-217)
T2 construct: extracellular domain; also called FcgRIIa R; 2aR; not shown: His tag at the C terminus
T2 sequence (looked up): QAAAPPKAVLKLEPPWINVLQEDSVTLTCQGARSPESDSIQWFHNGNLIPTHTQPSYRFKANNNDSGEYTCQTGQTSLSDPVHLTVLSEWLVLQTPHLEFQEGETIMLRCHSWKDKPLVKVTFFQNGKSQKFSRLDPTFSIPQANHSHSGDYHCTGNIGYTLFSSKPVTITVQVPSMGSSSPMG

B1: GpH7-A5/GpH7-B3 variant D265_15Y/GpL16-k0 (antibody, human IgG1, kappa)
heavy 1: not shown
heavy 2: not shown
light: DIVMTQSPLSLPVTPGEPASISCQASESLVHSNRNTYLHWYLQKPGQSPQLLIYKVSNRFSGVPDRFSGSGSGTDFTLKISRVEAEDVGVYYCSQNTHVPPTFGQGTKVEIERTVAAPSVFIFPPSDEQLKSGTASVVCLLNNFYPREAKVQWKVDNALQSGNSQESVTEQDSKDSTYSLSSTLTLSKADYEKHKVYACEVTHQGLSSPVTKSFNRGEC
notes: heterodimerized anti-glypican-3 IgG1; alteration in one H chain only; also called He Ab
B2: GpH7-A5/GpH7-B3 variant D265_20W/GpL16-k0 (antibody, human IgG1, kappa)
heavy 1: not shown
heavy 2: not shown
light: B1 light
notes: as for B1
B3: GpH7-A5/GpH7-B3 variant V266_12R/GpL16-k0 (antibody, human IgG1, kappa)
heavy 1: not shown
heavy 2: not shown
light: B1 light
notes: as for B1
B4: GpH7-A5/GpH7-B3 variant K326_03V/GpL16-k0 (antibody, human IgG1, kappa)
heavy 1: not shown
heavy 2: not shown
light: B1 light
notes: heterodimerized: alteration in one H chain only; also called He Ab K326_03V
B5: GpH7-A5/GpH7-B3 variant K326_04F/GpL16-k0 (antibody, human IgG1, kappa)
heavy 1: not shown
heavy 2: not shown
light: B1 light
notes: heterodimerized: alteration in one H chain only; also called He Ab K326_04F
B6: GpH7-A5/GpH7-B3 variant K326_07I/GpL16-k0 (antibody, human IgG1, kappa)
heavy 1: not shown
heavy 2: not shown
light: B1 light
notes: heterodimerized: alteration in one H chain only; also called He Ab K326_07I
B7: GpH7-A5/GpH7-B3 variant K326_08L/GpL16-k0 (antibody, human IgG1, kappa)
heavy 1: not shown
heavy 2: not shown
light: B1 light
notes: heterodimerized: alteration in one H chain only; also called He Ab K326_08L
B8: GpH7-A5/GpH7-B3 variant K326_15Y/GpL16-k0 (antibody, human IgG1, kappa)
heavy 1: not shown
heavy 2: not shown
light: B1 light
notes: heterodimerized: alteration in one H chain only; also called He Ab K326_15Y
B9: GpH7-A5/GpH7-B3 variant K326_20W/GpL16-k0 (antibody, human IgG1, kappa)
heavy 1: not shown
heavy 2: not shown
light: B1 light
notes: heterodimerized: alteration in one H chain only; also called He Ab K326_20W
B10: GpH7-A5/GpH7-B3 variant K334_02A/GpL16-k0 (antibody, human IgG1, kappa)
heavy 1: not shown
heavy 2: not shown
light: B1 light
notes: heterodimerized: alteration in one H chain only; also called He Ab K334_02A
B11: GpH7-A5/GpH7-B3 variant K334_04F/GpL16-k0 (antibody, human IgG1, kappa)
heavy 1: not shown
heavy 2: not shown
light: B1 light
notes: heterodimerized: alteration in one H chain only; also called He Ab K334_04F
B12: GpH7-A5/GpH7-B3 variant K334_05P/GpL16-k0 (antibody, human IgG1, kappa)
heavy 1: not shown
heavy 2: not shown
light: B1 light
notes: heterodimerized: alteration in one H chain only; also called He Ab K334_05P
B13: GpH7-A5/GpH7-B3 variant K334_08L/GpL16-k0 (antibody, human IgG1, kappa)
heavy 1: not shown
heavy 2: not shown
light: B1 light
notes: heterodimerized: alteration in one H chain only; also called He Ab K334_08L
B14: GpH7-A5/GpH7-B3 variant K334_10E/GpL16-k0 (antibody, human IgG1, kappa)
heavy 1: not shown
heavy 2: not shown
light: B1 light
notes: heterodimerized: alteration in one H chain only; also called He Ab K334_10E
B15: GpH7-A5/GpH7-B3 variant K334_13S/GpL16-k0 (antibody, human IgG1, kappa)
heavy 1: not shown
heavy 2: not shown
light: B1 light
notes: heterodimerized: alteration in one H chain only; also called He Ab K334_13S
B16: GpH7-A5/GpH7-B3 variant K334_19Q/GpL16-k0 (antibody, human IgG1, kappa)
heavy 1: not shown
heavy 2: not shown
light: B1 light
notes: heterodimerized: alteration in one H chain only; also called He Ab K334_19Q
B17: GpH7-A5/GpH7-B3 variant L235_20W/GpL16-k0 (antibody, human IgG1, kappa)
heavy 1: not shown
heavy 2: not shown
light: B1 light
notes: heterodimerized: alteration in one H chain only; also called He Ab L235_20W
B18: GpH7-A5/GpH7-B3 variant L328_13S/GpL16-k0 (antibody, human IgG1, kappa)
heavy 1: not shown
heavy 2: not shown
light: B1 light
notes: heterodimerized: alteration in one H chain only; also called He Ab L328_13S
B19: GpH7-A5/GpH7-B3 variant L328_14T/GpL16-k0 (antibody, human IgG1, kappa)
heavy 1: not shown
heavy 2: not shown
light: B1 light
notes: heterodimerized: alteration in one H chain only; also called He Ab L328_14T
B20: GpH7-A5/GpH7-B3 variant P238_03V/GpL16-k0 (antibody, human IgG1, kappa)
heavy 1: not shown
heavy 2: not shown
light: B1 light
notes: heterodimerized: alteration in one H chain only; also called He Ab P238_03V
B21: GpH7-A5/GpH7-B3 variant P238_04F/GpL16-k0 (antibody, human IgG1, kappa)
heavy 1: not shown
heavy 2: not shown
light: B1 light
notes: heterodimerized: alteration in one H chain only; also called He Ab P238_04F
B22: GpH7-A5/GpH7-B3 variant P271_08L/GpL16-k0 (antibody, human IgG1, kappa)
heavy 1: not shown
heavy 2: not shown
light: B1 light
notes: heterodimerized: alteration in one H chain only; also called He Ab P271_08L
B23: GpH7-A5/GpH7-B3 variant P331_02A/GpL16-k0 (antibody, human IgG1, kappa)
heavy 1: not shown
heavy 2: not shown
light: B1 light
notes: heterodimerized: alteration in one H chain only; also called He Ab P331_02A
B24: GpH7-A5/GpH7-B3 variant P331_04F/GpL16-k0 (antibody, human IgG1, kappa)
heavy 1: not shown
heavy 2: not shown
light: B1 light
notes: heterodimerized: alteration in one H chain only; also called He Ab P331_04F
B25: GpH7-A5/GpH7-B3 variant P331_15Y/GpL16-k0 (antibody, human IgG1, kappa)
heavy 1: not shown
heavy 2: not shown
light: B1 light
notes: heterodimerized: alteration in one H chain only; also called He Ab P331_15Y

biological target: T1, FcγRIIb; test: SPR (Biacore), captured antibody, FcγR as analyte; relative binding, control GpH7-A5/GpH7-B3/GpL16-k0 = 100
Experimental: The heterodimerized antibodies He Abs in which one of the H chains was introduced with an alteration were assayed for their binding activities to each activating FcγR and inhibitory FcγR according to the method described in Example 4. […] The activating FcγRs in FIGS. 26, 27, 28, and 29 are FcγRIa, FcγRIIa (R), FcγRIIa (H), and FcγRIIIa, respectively.
Analysis of interaction between objective antibody and the FcγR was carried out using Biacore T100 (GE Healthcare). HBS-EP+ (GE Healthcare) was used as the running buffer, and the measurement temperature was set to 25° C. Chips produced by immobilizing the antigen peptide by the amine coupling method to a Series S Sencor Chip CM5 (GE Healthcare), or alternatively, chips produced by allowing preliminarily biotinylated antigen peptides to interact with and immobilize onto a Series S Sensor Chip SA (certified) (GE Healthcare) were used. Antibodies of interest were captured onto an antigen peptide-immobilized chip, and allowed to interact to each FcγR diluted with running buffer. To regenerate and repeatedly use the chip, the antibodies captured on the chip were washed off by reacting 10 mM glycine-HCl, pH 1.5.

First: B1
Second: B2
The He/Con_2b of the first is lower: 0.6 control = 100 for the first, 1.1 control = 100 for the second.

In the case of B3, the He/Con_2b is reported as -1.1 control = 100.

biological target: T2, FcγRIIa R extracellular domain with …; test: SPR (Biacore), relative FcγRIIa R binding, GpH7-A5/GpH7-B3/GpL16-k0 = 100

Compared with B4, B5 is lower in He/Con_2aR: 141 % of control for the first, 135 % of control for the second.

First: B6
Second: B7
The He/Con_2aR of the first is higher: 147 % of control for the first, 137 % of control for the second.

Compared with B8, B9 is lower in He/Con_2aR: 136 % of control for the first, 131 % of control for the second.

First: B10
Second: B11
The He/Con_2aR of the first is lower: 105 % of control for the first, 110 % of control for the second.

First: B12
Second: B13
The He/Con_2aR of the first is lower: 103 % of control for the first, 106 % of control for the second.

Going from B14 to B15, the He/Con_2aR rises from 106 % of control to 109 % of control.

First: B16
Second: B17
The He/Con_2aR of the first is lower: 109 % of control for the first, 131 % of control for the second.

Compared with B18, B19 is higher in He/Con_2aR: 117 % of control for the first, 119 % of control for the second.

First: B20
Second: B21
The He/Con_2aR of the first is lower: 120 % of control for the first, 174 % of control for the second.

First: B22
Second: B23
The He/Con_2aR of the first is lower: 104 % of control for the first, 106 % of control for the second.

First: B24
Second: B25
The He/Con_2aR of the first is lower: 111 % of control for the first, 112 % of control for the second.

— patent publication US20150344570A1 (published 2015)
